Assay results: patent publication US20250108100A1, “C-TERMINAL FRAGMENT OF APOLIPOPROTEIN E AND APPLICATION THEREOF IN INHIBITING y-SECRETASE ACTIVITY” (SYNPHATEC (SHANGHAI) BIOPHARMACEUTICAL TECHNOLOGY CO., LTD., priority 2022, published 2025)
Entries after “also recorded” stand apart in the source; their conditions may differ.

Key:
[1] = tested on: human APP and β-secretase co-expressed in HEK 293T cells; assay: HEK 293T cells co-expressing APP and β-secretase (BACE1): Aβ ELISA and β-CTF Western blot; assay type: cell-based
Experimental: The experiment was performed according to the standard procedure in the ELISA analysis kit of Invitrogen Company. • a) The target protein was expressed in HEK 293T cell line. Cells were subcultured one day before transfection, and transfection was performed when the degree of cell adhesion reached 70%-80%. The transfection reagent was lipofectamine2000 (ThermoFisher). • b) 4-6 hours post transfection, medium were replaced with fresh cell culture medium. • c) 36-48 hours post transfection, the cell culture medium was collected, and then the ELISA process was performed or the cell culture medium was frozen in a −80° C. refrigerator. • d) 50 μl of standard samples and experimental samples were added to each well of the 96-well plate. • e) 50 μl of human-derived Aβ40 or Aβ42 or mouse-derived Aβ40 detection antibody was added to each well of the 96-well plate. • f) The above samples were shaken gently and placed at room temperature for 3 hours. • g) The liquid in the well were removed, and the plate was washed 4 times with 1× wash buffer. • h) 100 μl of the buffer containing 1× anti-Rabbit IgG HRP was added. • i) The plate was shaken gently and placed at room temperature for […]. • j) The liquid in the well were removed, and the well was washed 4 times with 1× wash buffer. • k) 100 μl of Stabilized Chromogen was added to each well, and the plate was placed in the dark for 30 minutes at room temperature. • l) 100 μl of Stop Solution was added to each well. • m) The absorbance at 450 nm was measured with a microplate reader. 2.4 qRT-PCR
(§1) 48 hours after transfection of HEK 293T cells and N2A cells, or 4.5 days after lentivirus infection of neurons, media and lysates were collected. Aβ40 and Aβ42 in the culture medium and cell lysates were detected by an Aβ ELISA kit as indicated in the protocol. (Invitrogen Technology; KHB3481 for human Aβ40, KHB3441 for human Aβ42 and KMB3481 for mouse Aβ40).
(§2) Data were analyzed by GraphPad Prism software (v6) using unpaired, paired, or one-sample t-tests. Aβ40 and Aβ42 levels were normalized to the corresponding GFP controls. α-CTF levels were normalized to FL-APP and corresponding GFP controls. All data are represented as mean±SEM. Statistical significance was defined as p<0.05. One, two, three and four stars (*) in the graph indicate p-values <0.05, <0.01, <0.001 and <0.0001, respectively.

[2] = tested on: APP and BACE1 co-expressed in N2A cells; assay: Aβ40 ELISA in N2A cells co-expressing APP and BACE1; assay type: cell-based, mouse
Experimental: as §1, §2

[3] = tested on: ADAM10, BACE1, PS1 and PS2; assay: mRNA (qRT-PCR) and protein (Western blot) expression of APP secretases in HEK 293T cells; assay type: cell-based, human
Experimental: • a) A plasmid expressing the target protein in mammalian cells was constructed, and the protein expression promoter is CAG. • b) The target protein was expressed in HEK 293T cell line. Cells were subcultured one day before transfection, and transfection was performed when the degree of cell adhesion reached 70%-80%. The transfection reagent was lipofectamine2000 (ThermoFisher). • c) 4-6 hours post transfection, the medium were replaced with fresh cell culture medium. • d) 36-48 hours post transfection, the cells were lysed (10% 1M tris-HCl (pH=6.8), 4% SDS, 20% glycerol, 0.01% bromophenol blue), and the protein samples were collected and used for Western blot or stored in a −80° C. freezer. • e) Polyacrylamide gel electrophoresis. Before protein loading, the protein was boiled at 98° C. for 10 min, and then centrifuged at 12000 rpm for 10 min. Electrophoresis: 80V for the upper stacking gel; 120V for the lower separating gel. • f) Protein transfer. The filter paper was soaked in the electrophoresis solution before use, and the PVDF membrane was put in methanol for 10s to activate, and the gel after electrophoresis was taken out from the electrophoresis tank, put in the order of filter paper—PVD membrane—gel-filter paper from bottom to top, and they were put into the transfer instrument, with transferring in constant current at 0.1 A for 70 min. • g) Blocking and antibody incubation: the transferred PVDF membrane was placed in 5% BSA/TBST blocking solution, and blocked on a shaker at room temperature for 1 hour. The primary antibody was used to incubate at 4° C. overnight on a shaker (12-16 h); 1×TBST was used to wash three times, once every 10 minutes; the secondary antibody was used to incubate, shaked at room temperature for 1-2 h; 1×TBST was used to wash three times, once every 10 minutes. • h) Imaging by development: development was performed with ECL chemiluminescence hypersensitive chromogenic reagent. […]
Quantitect SYBR-Green qRT-PCR kit from Qiagen was used to quantitatively analyze the relative content of mRNA. qRT-PCR primers were listed in Table 2. […]

APPSW = assay: Aβ40 produced by Swedish APP mutant (APPSW) in HEK 293T cells (ELISA); assay type: cell-based, human; details: HEK 293T cells expressing APPSW
Experimental: as §1

B1: ApoE CT: C-terminal fragment of ApoE, positions 216-299 of SEQ ID NO: 12; SEQ ID NO: 33 (protein)
chain: ARMEEMGSRTRDRLDEVKEQVAEVRAKLEEQAQQIRLQAEAFQARLKSWFEPLVEDMQRQWAGLVEKVQAAVGTSAAPVPSDNH
[1]; APP and BACE1, 1 μM GI254023X
  Aβ40 in the presence of GI254023X: decrease Aβ40
[1]; APP and BACE1, Western blot
  β-CTF levels: did not alter β-CTF levels
[1]; APP and β-secretase co-expressed, ELISA, vs GFP control
  production of Aβ40: decreased Aβ40
[1]; APP, BACE1
  Aβ40 in cell lysates, decreased by: about 42%
  Aβ40 secreted into the cell culture medium, reduced by: about 75%
  Aβ42, reduced by: about 74%
  ratio of Aβ42/Aβ40: remains unchanged
[1]; ELISA
  Aβ40: 25 % of GFP control
  Aβ42: about 26 % of GFP control
[2]
  total Aβ40: significantly reduced
[3]; Western blot
  protein expression of APP metabolizing enzymes: does not affect the protein expression
[3]; qRT-PCR
  mRNA expression of APP metabolizing enzymes: does not affect the mRNA expression
[3]; qRT-PCR and Western blot, vs GFP control
  mRNA and protein expression of ADAM10, BACE1, PS1 and PS2: does not change the mRNA and protein expression; also recorded: not altered
APPSW
  Aβ40 in cell lysates, reduced by: approximately 43%
  Aβ40 in the medium, reduced by: approximately 76%
